The text below walks through data of patent publication US20130266568A1 (Hoffmann-La Roche, published 2013).

A word on the Kd: it is the concentration at which binding is half-saturated. Higher therefore signals weaker binding. One may read the koff as the first-order rate constant of dissociation. One may read the kon as the rate constant with which the complex forms. A lower kon goes with slow association.

For assay [1], the target named is T1, Her3 on Her3-expressing, cMet negative T47D cells / Her3-positive cancer cells (UniProt P21860 20-1342, limits assumed).
T1 construct: whole, on cells
T1 sequence (P21860 20-1342 limits assumed, stated change not applied): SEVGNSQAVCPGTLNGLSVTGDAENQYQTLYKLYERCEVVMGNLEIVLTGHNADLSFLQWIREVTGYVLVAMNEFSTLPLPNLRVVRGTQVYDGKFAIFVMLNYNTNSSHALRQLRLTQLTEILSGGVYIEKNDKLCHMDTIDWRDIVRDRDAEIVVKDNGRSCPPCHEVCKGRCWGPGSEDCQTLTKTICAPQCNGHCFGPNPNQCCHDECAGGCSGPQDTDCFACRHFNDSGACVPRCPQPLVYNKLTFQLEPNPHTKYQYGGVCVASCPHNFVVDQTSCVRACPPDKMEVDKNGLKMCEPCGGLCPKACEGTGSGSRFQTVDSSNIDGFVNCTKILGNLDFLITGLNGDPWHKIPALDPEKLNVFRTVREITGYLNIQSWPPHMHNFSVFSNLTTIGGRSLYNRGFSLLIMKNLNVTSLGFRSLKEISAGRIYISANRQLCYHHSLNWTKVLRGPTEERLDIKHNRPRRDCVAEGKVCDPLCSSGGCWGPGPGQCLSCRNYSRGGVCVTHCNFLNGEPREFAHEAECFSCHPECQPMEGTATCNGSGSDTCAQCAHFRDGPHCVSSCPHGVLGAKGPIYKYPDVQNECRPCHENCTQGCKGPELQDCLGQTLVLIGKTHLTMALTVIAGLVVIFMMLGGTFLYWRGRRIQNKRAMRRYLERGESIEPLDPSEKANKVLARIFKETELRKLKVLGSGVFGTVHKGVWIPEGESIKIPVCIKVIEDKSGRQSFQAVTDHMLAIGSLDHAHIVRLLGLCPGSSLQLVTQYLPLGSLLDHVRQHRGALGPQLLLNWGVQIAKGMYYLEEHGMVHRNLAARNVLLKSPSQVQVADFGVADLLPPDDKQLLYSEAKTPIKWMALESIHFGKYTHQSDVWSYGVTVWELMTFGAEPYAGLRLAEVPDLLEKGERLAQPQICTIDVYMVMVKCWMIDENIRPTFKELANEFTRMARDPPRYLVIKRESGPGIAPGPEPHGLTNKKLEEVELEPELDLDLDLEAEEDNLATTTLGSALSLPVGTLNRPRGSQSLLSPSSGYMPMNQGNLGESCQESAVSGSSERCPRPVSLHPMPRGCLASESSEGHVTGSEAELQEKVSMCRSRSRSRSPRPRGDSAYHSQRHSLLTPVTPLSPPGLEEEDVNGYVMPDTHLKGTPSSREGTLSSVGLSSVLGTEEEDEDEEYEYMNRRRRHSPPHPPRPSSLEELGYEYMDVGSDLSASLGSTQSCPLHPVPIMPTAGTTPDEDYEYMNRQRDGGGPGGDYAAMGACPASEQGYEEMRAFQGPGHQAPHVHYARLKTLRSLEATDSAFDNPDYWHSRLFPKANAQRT
Kind of assay: FACS on live T47D cells (cMet-/Her3+); x axis fluorescence (log), y axis % of Max; antibody concentration not shown.

Assay [2] addresses T2, cMet (antigen in the SPR measurements) (UniProt P08581 25-932, limits assumed). Nature of the assay: SPR. In general terms: Surface plasmon resonance follows binding to a sensor surface in real time, without labels.
The target in assay [3] is T2, cMet (antigen in the SPR measurements). Kind of assay: SPR, KD uncleaved against KD after protease cleavage.
For assay [4] the target is unchanged. Kind of assay: SPR, cleaved against restricted form.
The target is the same in assay [5]. Kind of assay: SPR; after protease (MMP2/9) cleavage; dsFv unleashed.
For assay [6], the target named is HER3 (antigen in the SPR measurements) (UniProt P21860 20-643, limits assumed). Kind of assay: SPR.
HER3 (antigen in the SPR measurements), sequence (P21860 20-643 limits assumed): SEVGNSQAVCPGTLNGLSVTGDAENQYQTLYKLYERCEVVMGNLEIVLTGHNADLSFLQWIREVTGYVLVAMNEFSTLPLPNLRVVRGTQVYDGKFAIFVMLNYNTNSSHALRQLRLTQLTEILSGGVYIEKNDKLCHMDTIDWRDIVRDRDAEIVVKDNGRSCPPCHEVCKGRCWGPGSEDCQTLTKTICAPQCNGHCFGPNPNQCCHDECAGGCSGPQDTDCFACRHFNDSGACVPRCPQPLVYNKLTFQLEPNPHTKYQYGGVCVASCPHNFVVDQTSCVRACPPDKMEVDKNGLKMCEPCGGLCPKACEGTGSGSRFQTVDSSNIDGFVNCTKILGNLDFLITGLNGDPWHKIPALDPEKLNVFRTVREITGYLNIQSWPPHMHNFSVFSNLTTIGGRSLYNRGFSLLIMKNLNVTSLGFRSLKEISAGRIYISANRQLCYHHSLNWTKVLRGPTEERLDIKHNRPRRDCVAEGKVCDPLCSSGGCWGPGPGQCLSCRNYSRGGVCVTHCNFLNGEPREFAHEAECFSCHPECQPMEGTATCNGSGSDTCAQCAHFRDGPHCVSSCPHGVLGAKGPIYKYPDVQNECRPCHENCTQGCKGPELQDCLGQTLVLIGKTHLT
Assay [7] has as its target T2, cMet (antigen in the SPR measurements). Kind of assay: SPR; not cleaved; dsFv sterically restricted.

T2 sequence (P08581 25-932 limits assumed): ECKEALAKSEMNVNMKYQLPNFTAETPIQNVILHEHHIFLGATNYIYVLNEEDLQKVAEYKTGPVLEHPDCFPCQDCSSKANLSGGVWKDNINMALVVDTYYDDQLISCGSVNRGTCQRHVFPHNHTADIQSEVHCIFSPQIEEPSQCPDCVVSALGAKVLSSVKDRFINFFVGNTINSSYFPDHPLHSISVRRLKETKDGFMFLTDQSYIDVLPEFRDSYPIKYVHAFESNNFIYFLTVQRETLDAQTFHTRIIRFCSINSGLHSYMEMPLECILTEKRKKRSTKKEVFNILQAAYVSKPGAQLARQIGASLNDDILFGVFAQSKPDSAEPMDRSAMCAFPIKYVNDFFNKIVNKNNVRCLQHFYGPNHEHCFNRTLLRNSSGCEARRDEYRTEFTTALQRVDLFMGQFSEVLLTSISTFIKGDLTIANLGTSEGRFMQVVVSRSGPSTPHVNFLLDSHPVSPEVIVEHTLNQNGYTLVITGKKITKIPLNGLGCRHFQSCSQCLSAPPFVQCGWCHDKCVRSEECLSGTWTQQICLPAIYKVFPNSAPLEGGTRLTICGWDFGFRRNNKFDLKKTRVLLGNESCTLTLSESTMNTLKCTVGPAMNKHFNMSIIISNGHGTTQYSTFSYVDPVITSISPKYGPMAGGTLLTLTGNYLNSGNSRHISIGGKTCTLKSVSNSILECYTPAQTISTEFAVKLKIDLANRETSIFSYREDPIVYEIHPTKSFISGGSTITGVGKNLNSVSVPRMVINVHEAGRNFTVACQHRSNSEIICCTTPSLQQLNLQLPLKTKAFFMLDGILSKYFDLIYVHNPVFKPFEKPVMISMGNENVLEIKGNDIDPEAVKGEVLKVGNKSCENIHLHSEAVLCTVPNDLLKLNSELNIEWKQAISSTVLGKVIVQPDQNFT

B1: Her3/MetSS_KHSS_PreSci (protease cleavage site = prescission cleavage site), not cleaved (restricted form) (bispecific antibody, human IgG1, kappa)
heavy 1: not shown
heavy 2: not shown
light: DIQMTQTTSSLSASLGDRVTISCRARQDISNYLNWYQRKPDGTVKLLIYYTSRLHSGVPSRFSGSGSGTDYSLTISNLEQEDIATYFCQQGNTFPWTFGGGTKLEIKRTVAAPSVFIFPPSDEQLKSGTASVVCLLNNFYPREAKVQWKVDNALQSGNSQESVTEQDSKDSTYSLSSTLTLSKADYEKHKVYACEVTHQGLSSPVTKSFNRGEC
notes: Trivalent: whole anti-Her3 IgG (knobs-into-holes) with one disulfide-stabilized anti-cMet Fv tethered to both CH3 C-termini; Constructs were designed with a leader peptide
In the case of B1, the binding result in assay [1] is recorded as “binds”.

B2: Her3/MetSS_KHSS_M3 (MMP 2 and 9 cleavage site - variant 3), not cleaved (bispecific antibody, human IgG1, kappa)
heavy 1: not shown
heavy 2: not shown
light: DIQMTQTTSSLSASLGDRVTISCRARQDISNYLNWYQRKPDGTVKLLIYYTSRLHSGVPSRFSGSGSGTDYSLTISNLEQEDIATYFCQQGNTFPWTFGGGTKLEIKRTVAAPSVFIFPPSDEQLKSGTASVVCLLNNFYPREAKVQWKVDNALQSGNSQESVTEQDSKDSTYSLSSTLTLSKADYEKHKVYACEVTHQGLSSPVTKSFNRGEC
notes: Trivalent anti-Her3 IgG with restricted anti-cMet dsFv
In assay [2], B2 returned a Kd of 88.6 nM, a koff of 0.000263 s⁻¹ and a kon of 2970 M⁻¹ s⁻¹. Moreover, the “reduced binding affinity as compared to after the protease cleavage” value (from here on “reduced binding affinity”) in assay [3] came out at 17 times.

B3: Her3/MetSS_KHSS_M1 after protease cleavage (bispecific antibody)
heavy 1: not shown
heavy 2: not shown
chain: MLSQSGGGGSGGGGSDIQMTQSPSSLSASVGDRVTITCKSSQSLLYTSSQKNYLAWYQQKPGKAPKLLIYWASTRESGVPSRFSGSGSGTDFTLTISSLQPEDFATYYCQQYYAYPWTFGCGTKVEIKR
light: DIQMTQTTSSLSASLGDRVTISCRARQDISNYLNWYQRKPDGTVKLLIYYTSRLHSGVPSRFSGSGSGTDYSLTISNLEQEDIATYFCQQGNTFPWTFGGGTKLEIKRTVAAPSVFIFPPSDEQLKSGTASVVCLLNNFYPREAKVQWKVDNALQSGNSQESVTEQDSKDSTYSLSSTLTLSKADYEKHKVYACEVTHQGLSSPVTKSFNRGEC
notes: HC2 is cut in the connector; the VL fragment stays disulfide-linked to VH
On to B3, for which, in assay [2], the dissociation rate constant (koff) came to 0.00015 s⁻¹ and the association rate constant (kon) was 21200 M⁻¹ s⁻¹. The “fold improvement of affinity by MMP processing” value (shortened to “fold improvement of affinity”) in assay [4] is greater than 5 fold. In addition, in assay [5], the affinity, expressed as Kd, was 7.08 nM.

B4: Her3/MetSS_KHSS_M2 after protease cleavage (MMP-2 processed) (bispecific antibody)
heavy 1: not shown
heavy 2: not shown
chain: LWAQSGGGGSGGGGSDIQMTQSPSSLSASVGDRVTITCKSSQSLLYTSSQKNYLAWYQQKPGKAPKLLIYWASTRESGVPSRFSGSGSGTDFTLTISSLQPEDFATYYCQQYYAYPWTFGCGTKVEIKR
light: DIQMTQTTSSLSASLGDRVTISCRARQDISNYLNWYQRKPDGTVKLLIYYTSRLHSGVPSRFSGSGSGTDYSLTISNLEQEDIATYFCQQGNTFPWTFGGGTKLEIKRTVAAPSVFIFPPSDEQLKSGTASVVCLLNNFYPREAKVQWKVDNALQSGNSQESVTEQDSKDSTYSLSSTLTLSKADYEKHKVYACEVTHQGLSSPVTKSFNRGEC
notes: as for B3
Take B4: in assay [6], the affinity, expressed as Kd, was 1.85 nM; the koff was determined as 0.000327 s⁻¹; the kon is 177000 M⁻¹ s⁻¹. Further, in assay [2], the Kd came out at 7.14 nM, the koff came to 0.000141 s⁻¹ and the kon came to 19700 M⁻¹ s⁻¹. Also, the “fold improvement of affinity” value in assay [4] was greater than 5 fold.

B5: Her3/MetSS_KHSS_U (protease cleavage site = uPA cleavage site), not cleaved (bispecific antibody, human IgG1, kappa)
heavy 1: not shown
heavy 2: not shown
light: DIQMTQTTSSLSASLGDRVTISCRARQDISNYLNWYQRKPDGTVKLLIYYTSRLHSGVPSRFSGSGSGTDYSLTISNLEQEDIATYFCQQGNTFPWTFGGGTKLEIKRTVAAPSVFIFPPSDEQLKSGTASVVCLLNNFYPREAKVQWKVDNALQSGNSQESVTEQDSKDSTYSLSSTLTLSKADYEKHKVYACEVTHQGLSSPVTKSFNRGEC
notes: as for B2
In assay [6], B5 displayed a Kd of 2.34 nM, an off-rate (koff) of 0.000372 s⁻¹ and a kon of 159000 M⁻¹ s⁻¹. Moreover, in assay [2], the dissociation constant Kd was 20 nM, the dissociation rate constant (koff) stood at 0.000193 s⁻¹ and the kon worked out at 9670 M⁻¹ s⁻¹. Moreover, the “reduced binding affinity” value in assay [3] is 6 times.

B6: Her3/MetSS_KHSS_M2 (MMP 2 and 9 cleavage site - variant 2), not cleaved (bispecific antibody, human IgG1, kappa)
heavy 1: not shown
heavy 2: not shown
light: DIQMTQTTSSLSASLGDRVTISCRARQDISNYLNWYQRKPDGTVKLLIYYTSRLHSGVPSRFSGSGSGTDYSLTISNLEQEDIATYFCQQGNTFPWTFGGGTKLEIKRTVAAPSVFIFPPSDEQLKSGTASVVCLLNNFYPREAKVQWKVDNALQSGNSQESVTEQDSKDSTYSLSSTLTLSKADYEKHKVYACEVTHQGLSSPVTKSFNRGEC
notes: as for B2
In assay [6], B6 showed a Kd of 1.92 nM, a dissociation rate constant (koff) of 0.000324 s⁻¹ and a kon of 169000 M⁻¹ s⁻¹. In assay [2], this molecule registered a Kd of 114 nM, a koff of 0.000417 s⁻¹ and a kon of 3650 M⁻¹ s⁻¹. Besides, the “reduced binding affinity” value in assay [3] came to 16 times.

B7: Her3/MetSS_KHSS_M3 after protease cleavage (bispecific antibody)
heavy 1: not shown
heavy 2: not shown
chain: IAGQSGGGGSGGGGSDIQMTQSPSSLSASVGDRVTITCKSSQSLLYTSSQKNYLAWYQQKPGKAPKLLIYWASTRESGVPSRFSGSGSGTDFTLTISSLQPEDFATYYCQQYYAYPWTFGCGTKVEIKR
light: DIQMTQTTSSLSASLGDRVTISCRARQDISNYLNWYQRKPDGTVKLLIYYTSRLHSGVPSRFSGSGSGTDYSLTISNLEQEDIATYFCQQGNTFPWTFGGGTKLEIKRTVAAPSVFIFPPSDEQLKSGTASVVCLLNNFYPREAKVQWKVDNALQSGNSQESVTEQDSKDSTYSLSSTLTLSKADYEKHKVYACEVTHQGLSSPVTKSFNRGEC
notes: as for B3
In the case of B7, in assay [2], the dissociation constant (Kd) came out at 5.2 nM, the koff came out at 0.000105 s⁻¹ and the kon was found to be 20100 M⁻¹ s⁻¹. Moreover, the “fold improvement of affinity” value in assay [4] was greater than 5 fold.

B8: Her3/MetSS_KHSS_M1 (MMP 2 and 9 cleavage site - variant 1), not cleaved (bispecific antibody, human IgG1, kappa)
heavy 1: not shown
heavy 2: not shown
light: DIQMTQTTSSLSASLGDRVTISCRARQDISNYLNWYQRKPDGTVKLLIYYTSRLHSGVPSRFSGSGSGTDYSLTISNLEQEDIATYFCQQGNTFPWTFGGGTKLEIKRTVAAPSVFIFPPSDEQLKSGTASVVCLLNNFYPREAKVQWKVDNALQSGNSQESVTEQDSKDSTYSLSSTLTLSKADYEKHKVYACEVTHQGLSSPVTKSFNRGEC
notes: as for B2
B8: in assay [2], the koff was determined as 0.000374 s⁻¹ and the kon stood at 151 M⁻¹ s⁻¹. This molecule also yielded a Kd in assay [7] of 2480 nM. For the same molecule, the “reduced binding affinity” value in assay [3] came out at 350 times.
